{
  "source": "patent US7279304B2",
  "about": "“Methods for preparation of macrocyclic molecules and macrocyclic molecules prepared thereby” (President and Fellows of Harvard College, priority 2000, dated 2007)",
  "proteins": {"B1": {"name": "TycC TE (excised TE domain protein from the tyrocidine NRPS) (Brevibacillus parabrevis) (protein)", "chain": "FESRYGTAILLNQETARNVFCFTPIGAQSVYYQKLAAEIQGVSLYSFDFIQDDNRMEQYIAAITAIDPSGPYTLMGYSSGGNLAFEVAKELEERGYGVTDIILFDSYWKDKAIERTVAETENDIAQLFAEIGENTEMFNMTQEDFQLYAANEFVKQSFVRKTVSYVMFHNNLVNTGMTTAAIHLIQSELEADEEAPVAAKWNESAWANATQRLLTYSGHGIHSRMLAGDYASQNASILQNILQELFILK", "notes": "excised TE domain protein from the tyrocidine NRPS (TycC TE); made in house"}},
  "assay_in_all_cases": "purified protein, by the assay type",
  "assay_type_in_all_cases": "biochemical",
  "key": {"[1]": {"substrate": "CC(=O)NCCSC(=O)[C@H](CC(C)C)NC(=O)[C@H](CCCN)NC(=O)[C@@H](NC(=O)[C@H](Cc1ccc(O)cc1)NC(=O)[C@H](C)NC(=O)[C@H](CC(N)=O)NC(=O)[C@@H](Cc1ccccc1)NC(=O)[C@H](Cc1ccccc1)NC(=O)[C@@H]1CCCN1C(=O)[C@H](N)Cc1ccccc1)C(C)C", "settings": "other: Table 1; macrocyclization of peptide-SNAC substrate; 25 mM MOPS, pH 7.0", "description": "(§1) Macrocyclization reactions were carried out in 25 mM MOPS, pH 7.0 in a total volume of 400 μL. Reactions were initiated by addition of TycC TE and quenched at various time points by the addition of 25 μL 1.7% TFA/water, flash frozen in liquid nitrogen and stored at −80° C. (for Ex. 13, reactions were quenched by the addition of sodium phosphate, pH 5.3, to 100 mM). The reactions were then thawed, 85 μL acetonitrile added, and analyzed by analytical HPLC with monitoring at 220 nm (20% to 80% acetonitrile in 0.1% TFA/water, or in 25 mM potassium phosphate, pH 5.3 for Ex. 13, over 35 minutes, Vydac protein and peptide C18 column). Initial rates were calculated using 1 minute time points. Peptide-SNAC and reaction product concentrations were determined for all Tyr-containing peptides based on the estimated extinction coefficient ε (280 nm)=1,280 M^−1 cm^−1, which agrees with the experimentally determined ε (280 nm) of Ex. 1. For peptide-SNACs not containing Tyr, ε (220 nm) was determined experimentally, and concentrations of corresponding cyclic products determined by assuming equal ε (220 nm) values for the peptide-SNAC and cyclic product."}, "[2]": {"substrate": "CC(=O)NCCSC(=O)[C@H](CC(C)C)NC(=O)[C@H](CCCN)NC(=O)[C@@H](Cc1ccccc1)NC(=O)[C@H](CC(C)C)NC(=O)[C@H](CCCN)NC(=O)[C@H](N)Cc1ccccc1", "settings": "other: Table 2; cyclization of peptide-SNAC substrates of 6-14 amino acids", "description": "as §1"}, "[3]": {"substrate": "CC(=O)NCCSC(=O)[C@H](CC(C)C)NC(=O)[C@H](CCCN)NC(=O)[C@@H](NC(=O)[C@H](CC(C)C)NC(=O)[C@@H]1CCCN1C(=O)[C@@H](Cc1ccccc1)NC(=O)[C@H](CC(C)C)NC(=O)[C@H](CCCN)NC(=O)[C@@H](NC(=O)[C@H](CC(C)C)NC(=O)[C@@H]1CCCN1C(=O)[C@H](N)Cc1ccccc1)C(C)C)C(C)C", "settings": "other: Table 2; cyclization of peptide-SNAC substrates of 6-14 amino acids", "description": "as §1"}, "[4]": {"substrate": "CC(=O)NCCSC(=O)[C@H](CC(C)C)NC(=O)[C@H](CCCN)NC(=O)[C@@H](NC(=O)[C@H](Cc1ccc(O)cc1)NC(=O)[C@H](CCC(N)=O)NC(=O)[C@H](C)NC(=O)[C@@H](Cc1ccccc1)NC(=O)[C@H](Cc1ccccc1)NC(=O)[C@@H]1CCCN1C(=O)[C@H](N)Cc1ccccc1)C(C)C", "settings": "other: Table 1; macrocyclization of peptide-SNAC substrate; 25 mM MOPS, pH 7.0", "description": "as §1"}, "[5]": {"substrate": "CC(=O)NCCSC(=O)[C@H](CC(C)C)NC(=O)[C@H](CCCN)NC(=O)[C@@H]1CCCN1C(=O)[C@@H](Cc1ccccc1)NC(=O)[C@H](CC(C)C)NC(=O)[C@H](CCCN)NC(=O)[C@@H]1CCCN1C(=O)[C@H](N)Cc1ccccc1", "settings": "other: Table 2; cyclization of peptide-SNAC substrates of 6-14 amino acids", "description": "as §1"}},
  "data": [
    {"protein": "B1", "values": [
      {"measurement": "Km", "setting": "[1]", "value": 4, "unit": "µM"},
      {"measurement": "Km", "setting": "[2]", "value": 4, "unit": "µM"},
      {"measurement": "kcat", "setting": "[2]", "value": 0.5, "unit": "s⁻¹"},
      {"measurement": "Km", "setting": "[3]", "value": 6, "unit": "µM"},
      {"measurement": "kcat", "setting": "[3]", "value": 0.367, "unit": "s⁻¹"},
      {"measurement": "Km", "setting": "[4]", "value": 6, "unit": "µM"},
      {"measurement": "Km", "setting": "[5]", "value": 3, "unit": "µM"},
      {"measurement": "kcat", "setting": "[5]", "value": 0.283, "unit": "s⁻¹"}
    ]}
  ]
}
